Experimental data as given in IntAct's records for PubMed 25910212.

B1: DNA mismatch repair protein Mlh1 (Homo sapiens), P40692 (parent)
chain: MSFVAGVIRRLDETVVNRIAAGEVIQRPANAIKEMIENCLDAKSTSIQVIVKEGGLKLIQIQDNGTGIRKEDLDIVCERFTTSKLQSFEDLASISTYGFRGEALASISHVAHVTITTKTADGKCAYRASYSDGKLKAPPKPCAGNQGTQITVEDLFYNIATRRKALKNPSEEYGKILEVVGRYSVHNAGISFSVKKQGETVADVRTLPNASTVDNIRSIFGNAVSRELIEIGCEDKTLAFKMNGYISNANYSVKKCIFLLFINHRLVESTSLRKAIETVYAAYLPKNTHPFLYLSLEISPQNVDVNVHPTKHEVHFLHEESILERVQQHIESKLLGSNSSRMYFTQTLLPGLAGPSGEMVKSTTSLTSSSTSGSSDKVYAHQMVRTDSREQKLDAFLQPLSKPLSSQPQAIVTEDKTDISSGRARQQDEEMLELPAPAEVAAKNQSLEGDTTKGTSEMSEKRGPTSSNPRKRHREDSDVEMVEDDSRKEMTAACTPRRRIINLTSVLSLQEEINEQGHEVLREMLHNHSFVGCVNPQWALAQHQTKLYLLNTTKLSEELFYQILIYDFANFGVLRLSEPAPLFDLAMLALDSPESGWTEEDGPKEGLAEYIVEFLKKKAEMLADYFSLEIDEEGNLIGLPLLIDNYVPPLEGLPIFILRLATEVNWDEEKECFESLSKECAMFYSIRKQYISEESTLSGQQSEVPGSIPNSWKWTVEHIVYKALRSHILPPKHFTEDGNILQLANLPDLYKVFERC
partner: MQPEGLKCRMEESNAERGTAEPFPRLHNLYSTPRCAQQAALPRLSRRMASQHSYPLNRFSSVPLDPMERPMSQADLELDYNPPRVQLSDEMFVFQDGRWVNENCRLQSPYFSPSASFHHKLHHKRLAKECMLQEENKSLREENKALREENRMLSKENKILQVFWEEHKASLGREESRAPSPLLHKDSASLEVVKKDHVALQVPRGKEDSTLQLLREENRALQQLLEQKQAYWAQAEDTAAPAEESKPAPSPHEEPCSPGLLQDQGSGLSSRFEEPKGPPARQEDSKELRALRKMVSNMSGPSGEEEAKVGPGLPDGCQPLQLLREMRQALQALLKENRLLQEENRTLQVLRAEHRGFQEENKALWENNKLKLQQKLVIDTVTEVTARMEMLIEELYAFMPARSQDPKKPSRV
B2: ATP synthase mitochondrial F1 complex assembly factor 2 (Homo sapiens), Q8N5M1 (parent)
chain: MWRSCLRLRDGGRRLLNRPAGGPSASMSPGPTIPSPARAYAPPTERKRFYQNVSITQGEGGFEINLDHRKLKTPQAKLFTVPSEALAIAVATEWDSQQDTIKYYTMHLTTLCNTSLDNPTQRNKDQLIRAAVKFLDTDTICYRVEEPETLVELQRNEWDPIIEWAEKRYGVEISSSTSIMGPSIPAKTREVLVSHLASYNTWALQGIEFVAAQLKSMVLTLGLIDLRLTVEQAVLLSRLEEEYQIQKWGNIEWAHDYELQELRARTAAGTLFIHLCSESTTVKHKLLKE
partner: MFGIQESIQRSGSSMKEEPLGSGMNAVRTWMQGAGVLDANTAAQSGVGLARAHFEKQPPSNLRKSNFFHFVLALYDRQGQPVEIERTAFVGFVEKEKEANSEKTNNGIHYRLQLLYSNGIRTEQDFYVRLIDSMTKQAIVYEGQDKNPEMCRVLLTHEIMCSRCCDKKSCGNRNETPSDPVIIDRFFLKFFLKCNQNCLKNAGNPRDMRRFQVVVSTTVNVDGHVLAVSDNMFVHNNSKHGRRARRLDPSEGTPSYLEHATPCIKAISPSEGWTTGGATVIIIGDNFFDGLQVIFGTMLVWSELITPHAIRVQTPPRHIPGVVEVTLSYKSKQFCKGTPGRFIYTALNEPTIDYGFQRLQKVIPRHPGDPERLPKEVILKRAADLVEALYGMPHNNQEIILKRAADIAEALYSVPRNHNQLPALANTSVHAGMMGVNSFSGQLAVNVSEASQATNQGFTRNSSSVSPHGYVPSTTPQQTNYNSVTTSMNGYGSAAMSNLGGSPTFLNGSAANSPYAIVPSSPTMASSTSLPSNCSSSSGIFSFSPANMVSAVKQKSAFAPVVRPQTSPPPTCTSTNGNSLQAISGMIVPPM
B3: Bleomycin hydrolase (Homo sapiens), Q13867 (parent)
chain: MSSSGLNSEKVAALIQKLNSDPQFVLAQNVGTTHDLLDICLKRATVQRAQHVFQHAVPQEGKPITNQKSSGRCWIFSCLNVMRLPFMKKLNIEEFEFSQSYLFFWDKVERCYFFLSAFVDTAQRKEPEDGRLVQFLLMNPANDGGQWDMLVNIVEKYGVIPKKCFPESYTTEATRRMNDILNHKMREFCIRLRNLVHSGATKGEISATQDVMMEEIFRVVCICLGNPPETFTWEYRDKDKNYQKIGPITPLEFYREHVKPLFNMEDKICLVNDPRPQHKYNKLYTVEYLSNMVGGRKTLYNNQPIDFLKKMVAASIKDGEAVWFGCDVGKHFNSKLGLSDMNLYDHELVFGVSLKNMNKAERLTFGESLMTHAMTFTAVSEKDDQDGAFTKWRVENSWGEDHGHKGYLCMTDEWFSEYVYEVVVDRKHVPEEVLAVLEQEPIILPAWDPMGALAE
B4: U4/U6 small nuclear ribonucleoprotein Prp31 (Homo sapiens), Q8WWY3 (parent)
chain: MSLADELLADLEEAAEEEEGGSYGEEEEEPAIEDVQEETQLDLSGDSVKTIAKLWDSKMFAEIMMKIEEYISKQAKASEVMGPVEAAPEYRVIVDANNLTVEIENELNIIHKFIRDKYSKRFPELESLVPNALDYIRTVKELGNSLDKCKNNENLQQILTNATIMVVSVTASTTQGQQLSEEELERLEEACDMALELNASKHRIYEYVESRMSFIAPNLSIIIGASTAAKIMGVAGGLTNLSKMPACNIMLLGAQRKTLSGFSSTSVLPHTGYIYHSDIVQSLPPDLRRKAARLVAAKCTLAARVDSFHESTEGKVGYELKDEIERKFDKWQEPPPVKQVKPLPAPLDGQRKKRGGRRYRKMKERLGLTEIRKQANRMSFGEIEEDAYQEDLGFSLGHLGKSGSGRVRQTQVNEATKARISKTLQRTLQKQSVVYGGKSTIRDRSSGTASSVAFTPLQGLEIVNPQAAEKKVAEANQKYFSSMAEFLKVKGEKSGLMST
partner: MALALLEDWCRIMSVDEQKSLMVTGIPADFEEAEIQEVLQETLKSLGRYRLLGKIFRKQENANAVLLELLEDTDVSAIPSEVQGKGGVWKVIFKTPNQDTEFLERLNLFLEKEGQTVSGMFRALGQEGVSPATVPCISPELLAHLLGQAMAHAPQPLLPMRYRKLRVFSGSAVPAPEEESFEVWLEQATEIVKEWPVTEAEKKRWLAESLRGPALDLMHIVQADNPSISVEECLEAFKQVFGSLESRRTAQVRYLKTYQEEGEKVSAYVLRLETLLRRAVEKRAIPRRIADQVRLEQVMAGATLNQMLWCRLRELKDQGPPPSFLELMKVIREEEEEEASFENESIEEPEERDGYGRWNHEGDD
B5: Adiponectin (Homo sapiens), Q15848 (parent)
chain: MLLLGAVLLLLALPGHDQETTTQGPGVLLPLPKGACTGWMAGIPGHPGHNGAPGRDGRDGTPGEKGEKGDPGLIGPKGDIGETGVPGAEGPRGFPGIQGRKGEPGEGAYVYRSAFSVGLETYVTIPNMPIRFTKIFYNQQNHYDGSTGKFHCNIPGLYYFAYHITVYMKDVKVSLFKKDKAMLFTYDQYQENNVDQASGSVLLHLEVGDQVWLQVYGEGERNGLYADNDNDSTFTGFLLYHDTN
partner: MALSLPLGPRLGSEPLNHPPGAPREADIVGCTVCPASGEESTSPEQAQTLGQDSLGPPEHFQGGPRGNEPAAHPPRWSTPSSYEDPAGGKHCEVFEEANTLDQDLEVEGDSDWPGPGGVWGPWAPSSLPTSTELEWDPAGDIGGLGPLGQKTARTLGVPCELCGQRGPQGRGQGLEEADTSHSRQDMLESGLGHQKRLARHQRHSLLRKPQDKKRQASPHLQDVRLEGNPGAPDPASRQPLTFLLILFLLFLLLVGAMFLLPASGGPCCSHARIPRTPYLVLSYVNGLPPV
B6: DNA mismatch repair protein Mlh1 (Homo sapiens), P40692 (parent)
chain: B1 chain
partner: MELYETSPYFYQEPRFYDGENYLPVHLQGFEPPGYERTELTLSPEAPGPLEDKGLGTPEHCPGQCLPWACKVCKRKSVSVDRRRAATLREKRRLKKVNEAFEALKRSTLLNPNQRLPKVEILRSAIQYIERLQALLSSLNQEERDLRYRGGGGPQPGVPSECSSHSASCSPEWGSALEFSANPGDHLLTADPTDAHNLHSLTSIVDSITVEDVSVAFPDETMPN
B7: U4/U6 small nuclear ribonucleoprotein Prp31 (Homo sapiens), Q8WWY3 (parent)
chain: B4 chain
partner: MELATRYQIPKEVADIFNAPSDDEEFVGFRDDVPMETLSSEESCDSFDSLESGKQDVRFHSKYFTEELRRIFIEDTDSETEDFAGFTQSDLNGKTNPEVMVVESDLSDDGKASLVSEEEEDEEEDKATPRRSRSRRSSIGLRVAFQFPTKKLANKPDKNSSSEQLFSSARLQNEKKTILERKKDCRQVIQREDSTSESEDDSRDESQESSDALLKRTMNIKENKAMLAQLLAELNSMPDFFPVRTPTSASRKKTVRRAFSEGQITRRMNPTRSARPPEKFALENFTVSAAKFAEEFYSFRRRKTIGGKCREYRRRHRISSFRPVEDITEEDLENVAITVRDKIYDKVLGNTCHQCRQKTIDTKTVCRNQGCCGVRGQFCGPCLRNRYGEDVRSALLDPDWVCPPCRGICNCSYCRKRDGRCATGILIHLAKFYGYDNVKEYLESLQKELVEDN
B8: Mothers against decapentaplegic homolog 3 (Homo sapiens), P84022 (parent)
chain: MSSILPFTPPIVKRLLGWKKGEQNGQEEKWCEKAVKSLVKKLKKTGQLDELEKAITTQNVNTKCITIPRSLDGRLQVSHRKGLPHVIYCRLWRWPDLHSHHELRAMELCEFAFNMKKDEVCVNPYHYQRVETPVLPPVLVPRHTEIPAEFPPLDDYSHSIPENTNFPAGIEPQSNIPETPPPGYLSEDGETSDHQMNHSMDAGSPNLSPNPMSPAHNNLDLQPVTYCEPAFWCSISYYELNQRVGETFHASQPSMTVDGFTDPSNSERFCLGLLSNVNRNAAVELTRRHIGRGVRLYYIGGEVFAECLSDSAIFVQSPNCNQRYGWHPATVCKIPPGCNLKIFNNQEFAALLAQSVNQGFEAVYQLTRMCTIRMSFVKGWGAEYRRQTVTSTPCWIELHLNGPLQWLDKVLTQMGSPSIRCSSVS
partner: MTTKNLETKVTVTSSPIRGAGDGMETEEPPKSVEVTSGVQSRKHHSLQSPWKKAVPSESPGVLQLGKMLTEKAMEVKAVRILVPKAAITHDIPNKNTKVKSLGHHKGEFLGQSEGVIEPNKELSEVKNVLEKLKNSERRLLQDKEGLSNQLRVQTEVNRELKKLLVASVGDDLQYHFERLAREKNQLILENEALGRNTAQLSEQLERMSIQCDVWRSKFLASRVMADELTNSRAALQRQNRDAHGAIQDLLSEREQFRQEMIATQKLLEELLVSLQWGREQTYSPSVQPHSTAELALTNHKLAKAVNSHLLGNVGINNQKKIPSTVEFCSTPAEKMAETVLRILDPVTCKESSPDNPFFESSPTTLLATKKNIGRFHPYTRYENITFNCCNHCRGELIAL

Variants of: B1
Details: with CBY2, Q8NA61-2

| effect of a mutation on the interaction | Variant |
| --- | --- |
| with no effect | R472I |
| disrupting interaction strength | S44F |

Variants of: B2
Details: with coe1_human EBF1, Q9UH73

| effect of a mutation on the interaction | Variant |
| --- | --- |
| disrupting interaction strength | W94R |

Variants of: B3
Details: with nud12_human NUDT12, Q9BQG2
Sequence of nud12_human NUDT12, Q9BQG2 (Q9BQG2 whole entry): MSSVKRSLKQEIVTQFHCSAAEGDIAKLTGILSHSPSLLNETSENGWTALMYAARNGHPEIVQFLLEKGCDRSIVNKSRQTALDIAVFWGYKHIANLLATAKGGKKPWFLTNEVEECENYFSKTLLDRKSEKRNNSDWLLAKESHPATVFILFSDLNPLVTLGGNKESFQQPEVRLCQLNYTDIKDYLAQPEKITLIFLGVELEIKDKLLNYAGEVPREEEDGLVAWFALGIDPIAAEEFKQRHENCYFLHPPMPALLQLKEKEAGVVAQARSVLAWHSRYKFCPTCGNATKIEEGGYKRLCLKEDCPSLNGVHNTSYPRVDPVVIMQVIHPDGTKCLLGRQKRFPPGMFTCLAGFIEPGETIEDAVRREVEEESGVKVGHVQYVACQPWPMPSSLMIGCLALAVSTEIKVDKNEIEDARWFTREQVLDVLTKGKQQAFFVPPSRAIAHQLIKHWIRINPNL

| effect of a mutation on the interaction | Variant |
| --- | --- |
| with no effect | I443V |

Variants of: B4
Details: with pnma2_human PNMA2, Q9UL42

| effect of a mutation on the interaction | Variant |
| --- | --- |
| with no effect | L107V |

Variants of: B5
Details: with SYNE4, Q8N205-2

| effect of a mutation on the interaction | Variant |
| --- | --- |
| with no effect | Y111H |
| with no effect | I164T |

Variants of: B6
Details: with myog_human MYOG

| effect of a mutation on the interaction | Variant |
| --- | --- |
| disrupting interaction strength | G244D |
| with no effect | R472I |

Variants of: B7
Details: with CDCA7L

| effect of a mutation on the interaction | Variant |
| --- | --- |
| with no effect | L107V |

Variants of: B8
Details: with go45_human BLZF1, Q9H2G9

| effect of a mutation on the interaction | Variant |
| --- | --- |
| with no effect | I170V |
